Laboratory results as given in patent US20100273160A1.

Biological target: T1, MIS type II receptor (MISRII) on mouse ovarian cancer cell lines MOVCAR 7 and 4306 (mouse) (UniProt Q8K592)
T1 sequence (looked up): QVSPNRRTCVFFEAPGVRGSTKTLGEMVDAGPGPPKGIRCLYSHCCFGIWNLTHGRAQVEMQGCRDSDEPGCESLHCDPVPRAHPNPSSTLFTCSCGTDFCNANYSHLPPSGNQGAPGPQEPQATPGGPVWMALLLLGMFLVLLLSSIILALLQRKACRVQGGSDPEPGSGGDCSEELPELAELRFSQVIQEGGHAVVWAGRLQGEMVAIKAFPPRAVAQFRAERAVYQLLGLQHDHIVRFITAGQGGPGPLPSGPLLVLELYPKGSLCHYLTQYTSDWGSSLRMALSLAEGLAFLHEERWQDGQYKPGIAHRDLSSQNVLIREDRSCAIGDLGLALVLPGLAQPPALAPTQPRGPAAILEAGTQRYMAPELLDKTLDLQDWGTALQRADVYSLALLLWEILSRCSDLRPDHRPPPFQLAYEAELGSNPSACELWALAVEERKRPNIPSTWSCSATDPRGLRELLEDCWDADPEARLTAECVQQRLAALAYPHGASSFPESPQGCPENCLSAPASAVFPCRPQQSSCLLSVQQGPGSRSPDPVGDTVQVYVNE
Experiment: cell-based or functional assay

MTT proliferation assay, 4306 SP cells after first sort, 10 µg/ml MIS, inhibition versus vehicle: 37%
MTT proliferation assay, 4306 SP cells after sort 2, MIS, inhibition: 60%
MTT proliferation assay, 4306 SP cells after sort 3, MIS, inhibition (not significant): 17%
MTT proliferation assay, MOVCAR 7 NSP cells after first sort, 10 µg/ml MIS, inhibition versus vehicle: 93%
MTT proliferation assay, MOVCAR 7 SP cells after first sort, 10 µg/ml MIS, inhibition versus vehicle: 86%
MTT proliferation assay, MOVCAR 7 SP cells after sort 2, MIS, inhibition: 93%
MTT proliferation assay, MOVCAR 7 SP cells after sort 3, MIS, inhibition: 94%
B1: recombinant human Mullerian Inhibiting Substance (MIS) (ligand)
chain: LRAEEPAVGTSGLIFREDLDWPPGSPQEPLCLVALGGDSNGSSSPLRVVGALSAYEQAFLGAVQRARWGPRDLATFGVCNTGDRQAALPSLRRLGAWLRDPGGQRLVVLHLEEVTWEPTPSLRFQEPPPGGAGPPELALLVLYPGPGPEVTVTRAGLPGAQSLCPSRDTRYLVLAVDRPAGAWRGSGLALTLQPRGEDSRLSTARLQALLFGDDHRCFTRMTPALLLLPRSEPAPLPAHGQLDTVPFPPPRPSAELEESPPSADPFLETLTRLVRALRVPPARASAPRLALDPDALAGFPQGLVNLSDPAALERLLDGEEPLLLLLRPTAATTGDPAPLHDPTSAPWATALARRVAAELQAAAAELRSLPGLPPATAPLLARLLALCPGGPGGLGDPLRALLLLKALQGLRVEWRGRDPRGPGRAQRSAGATAADGPCALRELSVDLRAERSVLIPETYQANNCQGVCGWPQSDRNPRYGNHVVLLLKMQARGAALARPPCCVPTAYAGKLLISLSEERISAHHVPNMVATECGCR
